Results as given in US11939397B2, “ENTPD2 antibodies, combination therapies, and methods of using the antibodies and combination therapies” (Novartis AG, priority 2018, dated 2024).

Experiments:
cyno ENTPD2 = assay: FACS binding to cyno ENTPD2 expressing cells; parameters: species or system cynomolgus monkey
Description: FACS screening: Specific binding of candidate antibodies to endogenously expressed ENTPD2 was assessed by flow cytometry. Cells were rinsed thoroughly with 1×PBS and treated with Accutase (Millipore #SCR005) to lift from growth plates and resuspended at approximately 1×10^5 cells/90 μL in 1×FACS buffer (2% FBS+0.1% NaN3 in PBS). In a 96-well U-bottom plate, 10 μL of 10× antibody solution in FACS buffer was pre-seeded and 90 μL of cell suspension was added. Cell were incubated for 30 minutes at 4° C., washed 1× with cold PBS and resuspended in 100 μL of 1:500 secondary antibody 1×FACS buffer (Allophycocyanin conjugated F(ab′)2 goat anti-human IgG, Fcγ specific; Jackson Immunoresearch, Cat #109-136-098). After additional incubation for 15 min at 4° C., cells were washed twice with PBS and resuspended in 100 μL of 1×FACS buffer with 4 μg/mL propidium iodide (Life Technologies, Cat #P3566). Geometric mean fluorescence intensity was calculated on live single cells using FlowJo software.

B16LM3 tumor = assay: Syngeneic B16LM3 tumor model, survival; type: in vivo, C57BL/6 mice; conditions: mAb13 15 mg/kg in combination with anti-PD-1 Ab 10 mg/kg i.p., days 1, 5, 8, 12, 15; relative to No Treatment, Isotype Control or anti-PD-1 Ab
Description: B16LM3 model was established in female C57BL/6 mice by subcutaneous injection of 0.5×10^6 cells into the right flank of each mouse. The day after implant mice were randomized into treatment groups (n=10 per group). Mice received treatments of either anti-mouse ENTPD2 mAb13 or a non-specific mIgG2a isotype control (clone MOPC-173, BioLegend, San Diego, CA) at a final dose 15 mg/kg on Day 1, 5, 8, 12, 15.
Anti-PD-1 Ab (clone RMP1-14 Bio X Cell, West Lebanon, NH) or non-specific rIgG2a isotype control (clone RTK2758, BioLegend, San Diego, CA) were delivered i.p. at a final dose of 10 mg/kg on days 1, 5, 8, 12, 15. All doses were adjusted to individual mouse body weights.

ENTPD2 = target: T1, ENTPD2 (Homo sapiens, UniProt Q9Y5L3); assay: FACS binding to human ENTPD2 expressing cells (NIH/3T3); parameters: expressed in transfected cells
T1 sequence (Q9Y5L3 1-495): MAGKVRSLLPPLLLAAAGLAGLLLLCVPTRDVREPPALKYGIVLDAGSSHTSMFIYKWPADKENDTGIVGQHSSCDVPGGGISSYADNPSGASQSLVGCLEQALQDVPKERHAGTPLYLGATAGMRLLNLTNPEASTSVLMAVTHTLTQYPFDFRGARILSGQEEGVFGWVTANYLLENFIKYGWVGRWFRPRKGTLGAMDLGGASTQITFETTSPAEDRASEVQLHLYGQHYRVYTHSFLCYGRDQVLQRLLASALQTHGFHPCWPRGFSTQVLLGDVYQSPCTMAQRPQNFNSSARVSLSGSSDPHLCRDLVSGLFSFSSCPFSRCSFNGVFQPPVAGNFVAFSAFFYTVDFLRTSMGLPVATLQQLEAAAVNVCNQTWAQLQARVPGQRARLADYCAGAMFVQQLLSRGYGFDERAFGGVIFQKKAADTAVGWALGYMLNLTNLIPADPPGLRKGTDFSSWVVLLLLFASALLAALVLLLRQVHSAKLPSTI
Text: Ten days after fusion, hybridoma plates were screened for the presence of ENTPD2-specific antibodies using flow cytometry to confirm specific binding of candidate antibodies to cell surface-expressed human ENTPD2 using three cell lines: parental NIH/3T3 cells, NIH/3T3 cells stably overexpressing human ENTPD2, and RKO cells (ATCC®), which expresses endogenous human ENTPD2. Cells were rinsed thoroughly with PBS, treated with Accutase (Millipore #SCR005) to lift them from the growth plates, and resuspended in cold PBS. Cells were biotinylated and labeled with a fluorescent dye according to manufacturer's instructions (FluoReporter™ Cell-Surface Biotinylation Kit, Thermo Fisher Scientific Cat #F-20650; PE-Cy7 Steptavidin, ThermoFisher Scientific Cat #SA1012). Cells were resuspended at approximately 1×10^6 cells/ml in FACS buffer (PBS with 2% FBS+0.1% NaN3). In a 384-well plate, 20 μL of hybridoma supernatant was pre-seeded and 20 μL of cell suspension was added. […] Geometric mean fluorescence intensity was calculated on live single cells using FlowJo™ software.
FACS screening: Specific binding of candidate antibodies to endogenously expressed ENTPD2 was assessed by flow cytometry. […] Geometric mean fluorescence intensity was calculated on live single cells using FlowJo software.

cyno ENTPD2, sequence (as listed by the source): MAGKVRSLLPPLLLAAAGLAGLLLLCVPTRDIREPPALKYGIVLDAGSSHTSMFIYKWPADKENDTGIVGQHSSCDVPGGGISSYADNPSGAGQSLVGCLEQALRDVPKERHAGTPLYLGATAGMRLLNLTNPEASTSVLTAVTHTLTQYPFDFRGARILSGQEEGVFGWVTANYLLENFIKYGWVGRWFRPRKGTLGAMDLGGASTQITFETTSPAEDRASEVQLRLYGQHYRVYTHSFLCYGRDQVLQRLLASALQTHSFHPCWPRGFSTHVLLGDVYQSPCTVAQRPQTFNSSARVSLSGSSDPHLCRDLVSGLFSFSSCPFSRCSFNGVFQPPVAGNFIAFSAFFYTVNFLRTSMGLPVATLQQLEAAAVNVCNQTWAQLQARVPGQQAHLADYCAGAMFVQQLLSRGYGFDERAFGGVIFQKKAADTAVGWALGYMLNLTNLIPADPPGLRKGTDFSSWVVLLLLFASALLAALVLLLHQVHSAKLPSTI

B1: mAb13: anti-mouse ENTPD2 monoclonal antibody, VH SEQ ID NO: 191, VL SEQ ID NO: 202 (antibody, V domains shown)
VH: QVQLVQSGAELKQPGQSVKISCKASGYTFTHYGMNWVKQAPGQGLKWMGWINTDTGNPTYADDFKGRFVFSLDTSVSTAYLQISNLKNEDTATYYCVRYGTLYSGYGFFFDSWGQGTLVTVSS
VL: DIMMTQSPSSLSVSAGEKATITCKSSQSLFNSNTNKNYLNWYLQKPGQSPKLLFYYASTRHTGVPDRFIGSGSGTDFTLTITSVQDEDLADYYCQQWYSYPWTFGPGTKLEIK
Cyno ENTPD2
  binding to cyno ENTPD2: no binding
B16LM3 tumor
  mouse survival: significantly extended mouse survival
ENTPD2
  binding to human ENTPD2: no binding
